We go through three molecules from patent publication US20250115680A1 (PROFOUNDBIO US, published 2025).

In experiment [1] the target is T1, mouse PTK-7 recombinant protein (mouse, UniProt Q8BKG3 23-696, limits assumed).
T1 construct: also called mouse PTK7 protein
T1 sequence (looked up): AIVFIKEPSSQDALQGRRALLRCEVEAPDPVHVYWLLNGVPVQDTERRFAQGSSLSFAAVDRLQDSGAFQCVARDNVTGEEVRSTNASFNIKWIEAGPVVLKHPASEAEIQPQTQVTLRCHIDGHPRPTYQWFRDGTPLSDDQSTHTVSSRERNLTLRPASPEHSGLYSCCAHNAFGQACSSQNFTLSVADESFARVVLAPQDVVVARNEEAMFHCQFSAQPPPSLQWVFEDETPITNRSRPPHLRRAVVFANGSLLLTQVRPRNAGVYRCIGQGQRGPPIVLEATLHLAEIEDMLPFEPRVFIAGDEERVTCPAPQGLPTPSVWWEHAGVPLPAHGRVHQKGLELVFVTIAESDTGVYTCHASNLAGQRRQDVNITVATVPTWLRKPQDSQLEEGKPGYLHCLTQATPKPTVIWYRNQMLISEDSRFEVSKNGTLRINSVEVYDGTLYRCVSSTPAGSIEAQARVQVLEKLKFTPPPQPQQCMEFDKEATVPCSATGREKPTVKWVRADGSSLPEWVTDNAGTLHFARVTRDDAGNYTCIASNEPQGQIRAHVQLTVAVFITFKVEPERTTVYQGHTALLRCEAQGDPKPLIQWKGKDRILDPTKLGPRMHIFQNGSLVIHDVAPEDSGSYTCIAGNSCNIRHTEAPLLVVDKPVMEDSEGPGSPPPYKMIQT
Briefly: ELISA, plate-coated mouse PTK7 recombinant protein. The protocol: (§1) Binding specificity property was tested by ELISA according to a standard protocol. Specifically, 96-well micro-plates were coated with 2 μg/mL human, cynomolgus, mouse, and rat PTK-7 recombinant protein in PBS 100 μL per well, incubated overnight at 4° C. Plates were washed twice by TBS+0.5% Tween20. 200 μL of blocking buffer (2% BSA in PBS) was added to each well and incubated at 37° C. for 2 hours. Plates were washed using the buffer mentioned above. Serially diluted antibodies were added to the ELISA plate with 100 μL per well and incubated for 1 hour at room temperature. Then plates were washed for 3 times. After washing, HRP conjugated anti-human Fc antibody solution (abcam, ab98624, diluted with blocking buffer) was added to the plate with 100 μl per well. The plates were incubated at room temperature for 1 hour and then washed for 3 times. Then TMB solution was added to plates with 100 μl per well, placed at room temperature for 5-15 mins, then the stop solution (2M H₂SO₄) was added with 50 μl per well. Finally, the result was measured by absorbance at A₄₅₀ and A₆₃₀.
For orientation: ELISA stands for enzyme-linked immunosorbent assay.

Experiment [2] deals with T1, mouse PTK-7 recombinant protein. The experiment in a line: ELISA, plate-coated mouse PTK7 protein, anti-human Fc-HRP detection. As for the experimental part:
as §1

Experiment [3] deals with T2, rat PTK-7 recombinant protein (rat, UniProt A0A8I6ALM9 40-713).
T2 construct: also called rat PTK7 protein
The experiment in a line: ELISA, plate coated with 2 ug/mL rat PTK-7 recombinant protein, HRP anti-human Fc detection, OD450. As for the experimental part: as §1

The target in experiment [4] is T1, mouse PTK-7 recombinant protein. The experiment in a line: ELISA, plate coated with 2 ug/mL mouse PTK-7 recombinant protein, HRP anti-human Fc detection, OD450. As for the experimental part: as §1
The target of experiment [5] is T2, rat PTK-7 recombinant protein. Briefly: ELISA, plate-coated rat PTK7 protein, anti-human Fc-HRP detection. As for the experimental part: as §1

B1: humanized antibody 13C4 (antibody, V domains shown)
VH: QVQLVESGGGLVKPGGSLRLSCAASGFAFSTYDMFWIRQAPGKGLEWVSTISSGGGYTYYPGSVKGRFTISRDNAKNSLYLQMNSLRAEDTAVYYCVRPLLRDSYFYFDVWGQGTMVTVSS
VL: EIVMTQSPATLSVSPGERATLSCRASSSVSSSYLHWYQQKPGQAPRLLIFRTSNLASGIPARFSGSGSGTEYTLTISSLQSEDAAVYYCQQYSGYPLTFGQGTKLEIK
notes: Only variable regions are tied to 13C4; It was detected with anti-human Fc
Take B1: in experiment [1], the binding result is “no binding”.

B2: humanized antibody 2C8 (antibody, V domains shown)
VH: QIQLVQSGAEVKKPGASVKVSCKASGYTFTTYGMSWVRQAPGQGLEWMGWINTHSGVPTYVDEFKGRVTMTLDTSTSTAYMELSSLRSEDTAVYYCARSPFDYGSRGAWFVYWGQGTTVTVSS
VL: DVVMTQSPDSLAVSLGERATINCRSSQSIVHNSGDTYLEWYQQKPGQPPKLLIYKVSNRFPGVPDRFSGSGSGTDFTLTISSLQAEDLAVYYCFQGSHVPWTFGGGTKVEIK
notes: Only variable regions are tied to 2C8 by name; It was detected with anti-human Fc
With B2, in experiment [1], the binding result is reported as “no binding”.

B3: humanized antibody 2C5 (antibody, V domains shown)
VH: QVQLVQSGAEVKKPGASVKVSCKASGYTFTDYYINWVRQAPGQGLEWMGDINPYSGGPVYNQKFMARVTMTVDKSINTAYMELSRLRSDDTAVYYCARGDYYGSNYNYWGQGTLVTVSS
VL: EIVLTQSPATLSVSPGERATLSCRASQNIGTSIHWYQQKPGQAPRLLIKFASESISGIPARFSGSGSGTEFTLTISSLQSEDIAVYYCQQSNNWPYTFGQGTKLEIK
notes: Only variable regions are tied to 2C5; It was detected with anti-human Fc, so it has a human Fc
As a reminder, the EC50 is the midpoint of the concentration-response curve. In the case of B3, the EC50 in experiment [2] was 5.24 nM; in experiment [3], 5.24 nM; in experiment [4], 1.57 nM; in experiment [5], 1.57 nM.
